# Measurements reported in patent US20180179292.
# B1: G protein-coupled receptor kinase (GRK) in mouse heart lysates (protein)
# chain: MADLEAVLADVSYLMAMEKSKATPAARASKKILLPEPSIRSVMQKYLEDRGEVTFEKIFSQKLGYLLFRDFCLNHLEEAKPLVEFYEEIKKYEKLETEEERVVRSREIFDSYIMKELLACSHPFSKNATEHVQGHLVKKQVPPDLFQPYIEEICQNLRGDVFQKFIESDKFTRFCQWKNVELNIHLTMNDFSVHRIIGRGGFGEVYGCRKADTGKMYAMKCLDKKRIKMKQGETLALNERIMLSLVSTGDCPFIVCMSYAFHTPDKLSFILDLMNGGDLHYHLSQHGVFSEADMRFYAAEIILGLEHMHNRFVVYRDLKPANILLDEHGHVRISDLGLACDFSKKRPHASVGTHGYMAPEVLQKGVAYDSSADWFSLGCMLFKLLRGHSPFRQHKTKDKHEIDRMTLTMAVELPDSFSPELRSLLEGLLQRDVNRRLGCLGRGAQEVKESPFFRSLDWQMVFLQKYPPPLIPPRGEVNAADAFDIGSFDEEDTKGIKLLDSDQELYRNFPLTISERWQQEVAETVFDTINAETDRLEARKKAKNKQLGHEEDYALGKDCIVHGYMSKMGNPFLTQWQRRYFYLFPNRLEWRGEGEAPQSLLTMEEIQSVEETQIKERKCLLLKIRGGKQFVLQCDSDPELVQWKKELRDAYREAQQLVQRVPKMKNKPRSPVVELSKVPLIQRGSANGL
# Experiments:
# [1] = target: RKIP^S153A, cardiac transgene
# [2] = target: wild-type RKIP, cardiac transgene (RKIP-tg)
protein,measurement,setting,value
B1,GRK activity (in vitro rhodopsin phosphorylation with heart lysates; immunoblot of β2AR phosphorylation),[1],GRK activity was significantly reduced in mouse hearts of RKIP-tg but not of RKIP^S153A mice
same,GRK activity (in vitro rhodopsin phosphorylation with heart lysates; immunoblot of β2AR phosphorylation),[2],GRK activity was significantly reduced in mouse hearts of RKIP-tg
